Assay results published in patent publication US20190075806.

Assays:
[1] = molecular target: neutral lactase (GODO-YNL2; unfragmented high molecular fraction F-1, about 120 kDa), P00723
neutral lactase (GODO-YNL2; unfragmented high molecular fraction F-1, about 120 kDa), P00723, sequence (P00723 whole entry, the tested form may be a part): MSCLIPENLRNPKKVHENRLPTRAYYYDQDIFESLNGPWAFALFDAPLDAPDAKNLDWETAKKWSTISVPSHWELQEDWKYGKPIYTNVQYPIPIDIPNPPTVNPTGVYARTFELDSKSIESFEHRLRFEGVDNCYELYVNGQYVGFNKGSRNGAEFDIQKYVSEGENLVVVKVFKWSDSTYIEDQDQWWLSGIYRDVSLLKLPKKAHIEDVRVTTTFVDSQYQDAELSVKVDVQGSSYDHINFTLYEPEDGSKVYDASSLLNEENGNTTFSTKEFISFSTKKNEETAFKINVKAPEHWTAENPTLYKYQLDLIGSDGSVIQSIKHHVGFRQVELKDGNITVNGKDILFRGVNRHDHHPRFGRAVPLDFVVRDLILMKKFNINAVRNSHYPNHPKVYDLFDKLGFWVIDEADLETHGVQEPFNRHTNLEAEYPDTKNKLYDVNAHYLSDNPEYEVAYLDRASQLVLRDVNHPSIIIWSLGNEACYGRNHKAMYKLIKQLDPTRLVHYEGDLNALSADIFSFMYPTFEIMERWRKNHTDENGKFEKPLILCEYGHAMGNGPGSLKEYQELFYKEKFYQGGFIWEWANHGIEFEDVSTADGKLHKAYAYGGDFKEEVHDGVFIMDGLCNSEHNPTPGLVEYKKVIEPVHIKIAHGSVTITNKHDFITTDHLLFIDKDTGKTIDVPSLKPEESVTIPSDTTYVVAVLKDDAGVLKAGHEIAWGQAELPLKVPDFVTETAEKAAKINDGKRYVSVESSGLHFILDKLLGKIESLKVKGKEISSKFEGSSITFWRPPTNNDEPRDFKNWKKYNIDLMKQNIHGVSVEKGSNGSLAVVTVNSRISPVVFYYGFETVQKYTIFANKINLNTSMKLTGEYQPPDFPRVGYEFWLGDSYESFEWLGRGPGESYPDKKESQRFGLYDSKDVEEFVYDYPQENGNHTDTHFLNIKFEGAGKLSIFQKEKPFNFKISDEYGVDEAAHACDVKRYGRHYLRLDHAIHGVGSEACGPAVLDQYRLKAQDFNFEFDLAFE

B1: proteinase B derived from Kluyveromyces lactis (mature enzyme) (protein)
chain: SFNTQNSAPWGLARISHREKLNLGSFNKYLYDDDAGKGVTAYVVDTGVNVNHKDFDGRAVWGKTIPKDDPDVDGNGHGTHCAGTIGSVHYGVAKNADIVAVKVLRSNGSGTMSDVVKGVEYVAEAHKKAVEEQKKGFKGSTANMSLGGGKSPALDLAVNAAVKAGVHFAVAAGNENQDACNTSPAAAENAITVGASTLSDERAYFSNWGKCVDIFGPGLNILSTYIGSDTATATLSGTSMATPHVVGLLTYFLSLQPDADSEYFHAAGGITPSQLKKKLIDFSTKNVLSDLPEDTVNY
Azocasein
  SUBSTRATE SPECIFICITY (relative protease activity, K. lactis PrB): 1
Casein
  SUBSTRATE SPECIFICITY (relative protease activity, K. lactis PrB): 0
BSA, P02769
BSA, P02769, sequence (P02769 25-607): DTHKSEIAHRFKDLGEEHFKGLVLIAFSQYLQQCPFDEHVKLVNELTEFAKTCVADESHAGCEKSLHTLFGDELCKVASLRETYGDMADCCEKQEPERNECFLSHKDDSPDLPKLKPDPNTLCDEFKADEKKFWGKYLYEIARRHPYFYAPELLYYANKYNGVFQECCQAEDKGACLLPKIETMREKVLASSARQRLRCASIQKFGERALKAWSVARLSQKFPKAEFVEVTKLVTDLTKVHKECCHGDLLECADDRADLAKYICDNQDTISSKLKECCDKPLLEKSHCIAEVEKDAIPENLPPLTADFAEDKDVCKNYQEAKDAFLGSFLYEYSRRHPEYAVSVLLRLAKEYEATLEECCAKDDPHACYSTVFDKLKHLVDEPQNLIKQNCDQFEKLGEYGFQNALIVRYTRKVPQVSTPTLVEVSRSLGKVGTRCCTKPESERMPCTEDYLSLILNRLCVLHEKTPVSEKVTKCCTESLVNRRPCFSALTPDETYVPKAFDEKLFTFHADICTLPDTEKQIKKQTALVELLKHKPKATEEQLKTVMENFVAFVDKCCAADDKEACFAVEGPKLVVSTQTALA
  SUBSTRATE SPECIFICITY (relative protease activity, K. lactis PrB): 0
FITC-casein
  SUBSTRATE SPECIFICITY (relative protease activity, K. lactis PrB): 78
Azocoll
  SUBSTRATE SPECIFICITY (relative protease activity, K. lactis PrB): 1.9
[1]
  SUBSTRATE SPECIFICITY (relative protease activity, K. lactis PrB): 1160
